Laboratory results: the nanobody polyreactivity screen of Harvey et al. (2022)

Assay: yeast display, Sf9 membrane polyspecificity reagent, FACS + sequencing; frameworks hold sequencing errors
Method in brief: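 Using colony PCR, genes from sorted yeast display clones were amplified, then sequenced on MiSeq at 2 × 250 and filtered by CDR length. The clones had been stained with 10% biotinylated, detergent-solubilized Sf9 membrane reagent for 1 hour at 4 °C and sorted by FACS into low and high (top ~1%) gates on anti-HA and streptavidin fluorescence. Polyreactivity labels come from the gate of origin.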

Row | Sequence | polyreactivity (PSR sort gate)
1 | QVQLVESGGGIVQAGGSLRLSCAASGFTFGSNAMGWYRQAPGKERELVAAISRSSGRTYYADSVKGRFTISRDNAKNNVYLHMNSLKQEDTAVYYCDAQTPYRISLQYYYWGQGTQVTVSS | high polyreactivity
2 | QVQLVESGGGIVQAGGSLRLSCAASGFTFGSYAMGWYRQAPGKEREFVAAIRRSGSSTYYADSVKGRFTISRDNAKNTVYLQMNSLKPEDTAVYYCAADVYRRLRRYRYYYWGQGTQVTVSS | low polyreactivity
3 | QVQLVESGGGIVQAGGSLRLSCAASGFTFYYNAMGWYRQAPGKERELVAAISYRGGSTYYADSVKGRFTISRDNAKNTVYFQMNSLKPEDTAVYYCATRDPAFYRRYDYWGQATQVTVSS | high polyreactivity
4 | QVQLVESGGGIVQAGGSLRLSCAASGGIFYRNAMGWYRQAPGKERELVAAISWRGGSTYYADSVKGRFTNSRDNAKNTVYLQMNSLKPEDTAVYFCAARSVATYRYDYWGQGTQVTVSS | high polyreactivity
5 | QVQLVESGGGIVQAGGSLRLSCAASGIIFRAYAMGWSRQAPGKERELVAAISWSGGSTYYADSVKGRFTISRDNAKYTVYLQMNSLNPEDTAVYYCAAESLVYDFDYWGQGTQVTVSS | high polyreactivity
6 | QVQLVESGGGIVQAGGSLRLSCAASGITFDLYAMGWSRQAPGKERELVAASTYYADSVKWRFTISRDYAKNTVYLQMNSLKPEDTAVYYCITREPVTSDYWGLGTQVTVSS | high polyreactivity
7 | QVQLVESGGGIVQAGGSLRLSCAASGITSYFNAMGWYRQAPGKERELVAITWNGGSTYYADSVKGRFTITRDNAKNTVYLQMNSLKPEDTAVYYCAARYRRYNRKYDYWGQGTQVTVSS | high polyreactivity
8 | QVQLVESGGGIVQAGGSLRLSCAASGLIFYYYALGWYRQAPGKERQLVAAITSGSTTYADSVKGRFTISRDNAKNTVYLQMNSLKPEDTAVYYCNKDQDYKLTTTFDYDYWGQGTQVTVSS | low polyreactivity
9 | QVQLVESGGGIVQAGGSLRLSCAASGRIFANYAKGWYRQAPGKERELVAAISRSGGSTSYADSVKGRFTISRDNAKYTVYLQMNSLKPEETAVSYCAVVSPRQSYYYWGQGTQVTVSS | high polyreactivity
10 | QVQLVESGGGIVQAGGSLRLSCAASGRIFDNYVLGWYRQAPGKERELVAAISSGGGTYYADSVKGRFTISRDNAKNTVYLQMNSLKPEDTAVYYCAKRRVYDRSFGRYDYWGQGTQVTVSS | low polyreactivity
11 | QVQLVESGGGIVQAGGSLRLSCAASGRIFGYYAMGWYRQARGKERELVAAITWSGGRTYYADSVKGRFTISRDNAKNTVYLQMNSLKPDDTAVYYCAAVVQGPNRKYNYWGQGTQVTVSS | high polyreactivity
12 | QVQLVESGGGIVQAGGSLRLSCAASGRIFLRNAMGWYRQAPGYEREFVAAMRYSGGRTYYADSVKGRFTISRDNAKNTVYLQMISLNPEDTAVYYCAAEGSSRSSYRKYDYWGQGSQVTVSS | high polyreactivity
13 | QVQLVESGGGIVQAGGSLRLSCAASGRIFRINGMGWYRQAPGKEREFVAAITSGGGTYYADSVKGRFTISRDNAKNTVYLQMNSLKAEDTAVFYCAVRRRYGDDYWGHGTQVTVSS | high polyreactivity
14 | QVQLVESGGGIVQAGGSLRLSCAASGRIFRIYAMGWYRQAPGKEWELVASISWGGASTYYADSVKGRFTISRDNAKNPVYLQMNSLKPEDTAVYDCAAVGYQGQYDYRSFGSWGQGTQVTVSS | high polyreactivity
15 | QVQLVESGGGIVQAGGSLRLSCAASGRIFSSYAMGWYRQAPGKERELVAAITRGGSTYYADSVKGRFTISRDNANNTVHLQMNSLKPEDPAVYYCAARPPYRYWFWGNEDYWGQGTQVTVSS | high polyreactivity
16 | QVQLVESGGGIVQAGGSLRLSCAASGRIFVLYAMGSYRQAPGKERELVADITVSGGRTYYADSVKGRFTISRDNAKYTVYLQMNSLKPEDTAVYYCAASPRSYYWRYYQEDYWGQGTQVTVSS | high polyreactivity
17 | QVQLVESGGGIVQAGGSLRLSCAASGRIFWWYAMGMYRQAPGKERELVAVIDDSGGITYYADSVKGRFTISRDNAKNTVYLQMNSLKPEDTAVYYCARNVNAQKVLGGFDSWGQGTQVTVSS | low polyreactivity
18 | QVQLVESGGGIVQAGGSLRLSCAASGRIFYINAMGWYRQSPGKERELVAAITGSGGRTYYADSVKGRFTISRDNAKNTVYLHINSLKPEDTAVYYCAAQKKHYSYSYWYDSLGQGTQVTVSS | high polyreactivity
19 | QVQLVESGGGIVQAGGSLRLSCAASGRIFYYNAMGWYRQAPGKERELVAAISTRGTSTYYAESVKGRFTISRDNAKNTVYLQMNSLKPEDTAVYYCNRASGNWQSYLSYDYWGQGTQVTVSS | low polyreactivity
20 | QVQLVESGGGIVQAGGSLRLSCAASGRLFYYYAMGWDRQAPGTERELVAVISRGVITYYADSVKGRFTISRDTAKNTVYLQMNSLKPEDTAVYYCAVSYPHYIYSYGYWGQGTQVTVSS | high polyreactivity
21 | QVQLVESGGGIVQAGGSLRLSCAASGRTFWGYAMGWYRQAPGKERELVASISGRGGSTYYADSVKERFTISRDTAKNTVYLQINSLQPEDTAVYYCAATYFSVKWYYYWGEGTQVTVSS | high polyreactivity
22 | QVQLVESGGGIVQAGGSLRLSCAASGRTLGGYAMGWYRQAPGKERELVAAITRRGGSTYYADSVKGRFTISRDNAKNTVYLQMNSLKPEDTAVYYCAARWYARSLTRFNYWGQGTQVTVSS | high polyreactivity
23 | QVQLVESGGGIVQAGGSLRLSCAASGRTSVINAMGWYRQAPGKERELVASISRGGSTNYADSVKGRFTISRDNAKNTVYLQMNSLKPEDTAVYYCNADEQNDSFIWSYTIIYDYWGQGTQVTVSS | low polyreactivity
24 | QVQLVESGGGIVQAGGSLRLSCAASGSIFADYAMGWYRQAPGKERELVAVISRRGGTTYYADSVKGRFTISRDNAKNSVYLQMNSLKPEDTAVYYCAARRSFNEYDYWGQGTQVTVSS | high polyreactivity
25 | QVQLVESGGGIVQAGGSLRLSCAASGSIFQYNAMGWYRQAPGKERELVAAITRGDSTYYADSVKGRFTISRDNAKNTVYLQMNSLKPEDTAVYYCAARPRGKYDYWGQGTQVTVSS | high polyreactivity
26 | QVQLVESGGGIVQAGGSLRLSCAASGSIFSYYAMGWYRMAPGKERELVAGITGGGSTDYADSLKGRFTISRDNAKNTVYLQMNSLKPEDTAVYYCAKRYVPWRPYDYWGKGTQVTVSS | low polyreactivity
27 | QVQLVESGGGIVQAGGSLRLSCAASGSIFVENAMGWTRQAPGKERELVAAISSDASTNYADSVKGRFTISRDNAKNTVFLQRNSLKPEDTAVYYCAAGYNQHGQYDYWGQGTQVTVSS | low polyreactivity
28 | QVQLVESGGGIVQAGGSLRLSCAASGSIFVHNDLGWYRQAPGKERELVARINTGGGTNYADSVKGRFTISRDNAKKTVYLQMNSLKPEDTAVYYCATDGDRDDHYFTDPEFDYWGQGTQVTVSS | low polyreactivity
29 | QVQLVESGGGIVQAGGSLRLSCAASGSIFYPYVMGWYRQAPGKERELVAAITTSVGSTYYADSVKGRFTISRDHAKNTVYLQMNSLKPEDTAVYYCAAKYFGSRRPGRYNYWGQGTQVTVSS | high polyreactivity
30 | QVQLVESGGGIVQAGGSLRLSCAASGSIFYQYAMGWYRQAPGKERELVAAISRSGGSTYYADSVKGRFTISRDNAKNNVYLQMNSLKPVDTAVYYCAARAVRAAYDYWGQGTQVTVSS | low polyreactivity
